Assay results from US20260108588A1, “A COMPLEX COMPRISING A ALPHA-LACTALBUMIN AND A FATTY ACID OR LIPID FOR USE IN THE TREATMENT OR PREVENTION OF CANCER” (LINNANE PHARMA AB, priority 2022, published 2026).

Assays:
DLD1 cells = assay: Cell death assays (Prestoblue and ATPlite); assay type: cell-based, human; conditions: 7, 21 and 35 μM each, FIG. 12g-i
Method: Two assays were used as an indirect measure of cell death. Luminescence-based ATPlite™ kit (Perkin Elmer) as well as the Prestoblue assay (ThermoFisher Scientific). Cells (5×10^4 cells/well) were seeded in serum-free RPMI-1640 on 96-well plates and treated with BAMLET and alpha1-oleate at different concentration (7, 21, and 35 μM) and incubated for one hour. Afterward, FCS was added at concentration of 5% and the cells were continuously incubated for two hours at 37° C., at the end of which the two kits were used according to manufactures' instructions. Luminescence and fluorescence were measured using a microplate reader (Infinite F200, Tecan). The experiments were performed in triplicate and repeated twice.

bladder cancer [1] = conditions: patients; cited from earlier work
tumor cells = conditions: cited from earlier work
skin papillomas = conditions: topical application; cited from earlier work
bladder cancer [2] = conditions: local instillations; cited from earlier work

alpha1-oleate: HAMLET family member formed by the N-terminal alpha-helical peptide (aa 1-39) of alpha-lactalbumin and oleate [reference compound]
tumoricidal effect, BAMLET compared with alpha1-oleate (DLD1 cells): similar | therapeutic efficacy in bladder cancer (bladder cancer [1]): has shown therapeutic efficacy

B1: HAMLET: tumoricidal unfolded protein-lipid complex of partially unfolded human α-lactalbumin and oleic acid (protein, UniProt P00709 20-142, looked up)
Alpha-lactalbumin: KQFTKCELSQLLKDIDGYGGIALPELICTMFHTSGYDTQAIVENNESTEYGLFQISNKLWCKSSQVPQSRNICDISCDKFLDDDITDDIMCAKKILDIKGIDYWLAHKALCTEKLEQWLCEKL
modifications: complexed with oleic acid
tumor cell killing in vitro (tumor cells): kills many types of tumor cells | effect on skin papillomas (skin papillomas): removed or reduced skin papillomas | tumor size in bladder cancer (bladder cancer [2]): caused a reduction in tumor size
